According to patent US6987169:

Target: hIK1 intermediate conductance, calcium-activated potassium channel (human) (UniProt O15554)
Experiment: cell-based or functional assay

iberiotoxin, sequence (P24663 whole entry): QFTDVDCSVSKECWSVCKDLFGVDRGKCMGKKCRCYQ
hIK1 intermediate conductance, calcium-activated potassium channel (human), sequence (O15554 other isoform, or with tags, fused parts or gaps): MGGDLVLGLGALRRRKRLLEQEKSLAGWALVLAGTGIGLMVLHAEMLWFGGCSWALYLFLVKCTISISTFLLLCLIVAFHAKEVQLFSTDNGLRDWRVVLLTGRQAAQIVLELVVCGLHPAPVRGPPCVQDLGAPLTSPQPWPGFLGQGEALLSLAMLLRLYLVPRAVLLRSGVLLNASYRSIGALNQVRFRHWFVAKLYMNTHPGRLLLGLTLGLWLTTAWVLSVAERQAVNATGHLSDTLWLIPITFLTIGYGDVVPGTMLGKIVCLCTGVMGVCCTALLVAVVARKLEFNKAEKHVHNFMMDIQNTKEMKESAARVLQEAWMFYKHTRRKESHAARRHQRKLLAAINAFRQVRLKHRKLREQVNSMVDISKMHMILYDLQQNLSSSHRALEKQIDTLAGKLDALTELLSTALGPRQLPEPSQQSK

For “iberiotoxin (from UniProt P24663 1-37) (peptide)”, the percent block of hIK1 currents at 50 nM was 15%.
